# From patent US20230031280A1, “GLP-2 FUSION POLYPEPTIDES AND USES FOR TREATING AND PREVENTING GASTROINTESTINAL CONDITIONS” (SHIRE-NPS PHARMACEUTICALS, INC., priority 2017, published 2023)
# Experiments:
# [1] = Rat pharmacokinetics, subcutaneous dosing; format: in vivo, Sprague-Dawley rats; conditions: single dose 1 mg/ml
# Description: In the rat, four pharmacokinetic parameters were measured for Gattex® (a GLP-2 peptide having the A2G mutation): CL, Vc, Vt and Q. The same pharmacokinetic parameters were also measured for GLP-2 peptibodies A, B, E, J, K, L, M, O and P. The data is shown in Table 5. Male Sprague-Dawley rats (3 animals per group) were injected subcutaneously into the intra-scapular region of the animal. A singles dose of test article was injected at a dose level of 1 mg/ml. The test articles were formulated in PBS pH 7.4 at a concentration of Blood samples were taken 0.083, 0.167, 0.33, 0.5, 1, 2, 6, 24, 48, 72, 120, 168, 240, and 336 hours post dose. Blood samples were collected into heparinized tubes and centrifuged for 5 minutes at 2000 xg within 10 minutes of collection. 100 μL of plasma were transferred to a […] Eppendorf tube containing 2 μL of 50 mM PMSF. After mixing the plasma samples were frozen at −80° C. until analysis. Meso Scale Discovery (MSD) ELISA was undertaken to assay for the concentration of the GLP-2 peptibodies.
# A sandwich immunoassay was developed using either an anti-Human IgG1 Fc antibody or an anti-human albumin antibody for capture of the peptibody and a sulfotag labeled anti GLP-2 antibody for detection.
# [2] = NanoDSF melting temperature / thermal stability; format: physicochemical
# Description: Each of the GLP-2 peptibodies was tested by determining melting temperature with nanodifferential scanning fluorimetry (NanoDSF). NanoDSF is a measurement of protein stability over a range of temperatures, with a temperature ramp employed. The stability of tryptophan is measured by fluorescence, as reflected in a ratio of fluorescence at 350 nm to fluorescence at 330 nm. From the assay, one or more melting temperatures are determined. Because a protein in a certain state is understood to have a melting temperature, the number of melting temperatures observed reflects the number of different states.
# (§1) Stability analysis was then performed using SEC-MALS and NanoDSF. For SEC-MALS, a Sepax Zenix C-150 column was used. The mobile phase buffer was 1× PBS with a final concentration of 400 mM NaCl. The flow rate was 0.8 mL per minute. 20 micrograms of total protein was injected. For NanoDSF, 10 microliters of sample was used, without normalization of the samples.
# as §1
# [3] = SEC-MALS (Sepax Zenix C-150) peak distribution; format: physicochemical
# Description: A SEC-MALS assay was performed to determine the primary state (main peak) and its molecular weight. […] The GLP-2 peptibody O (albumin fusion) eluted at a molecular weight indicative of a monomer.
# as §1, §1
# [4] = Rat pharmacokinetic comparability with/without C-terminal lysine; format: in vivo, Sprague-Dawley rats; conditions: in vivo, 1 mg/kg
# Description: 1 mg/kg of total GLP-2 peptibody K protein was administered subcutaneously to one group of six male Sprague-Dawley rats. 1 mg/kg of total GLP-2 peptibody K274 protein was administered intravenously to another group of six male Sprague-Dawley rats. 1 mg/kg of total GLP-2 peptibody B protein was administered subcutaneously to a third group of five male Sprague-Dawley rats. 1 mg/kg of total GLP-2 peptibody B264 protein was administered subcutaneously to a fourth group of five male Sprague-Dawley rats.
# For all of the above groups, plasma samples were taken pre-dose, and at the following time points post-dose: 5 minutes (day 1), 10 minutes (day 1), 20 minutes (day 1), 30 minutes (day 1), 1 hour (day 1), 2 hours (day 1), 6 hours (day 1), 24 hours (day 2), 48 hours (day 3), 72 hours (day 4), 120 hours (day 6), 168 hours (day 8), 240 hours (day 11), and 336 hours (day 15).
# Tables showing the pharmacokinetic data comparing intravenously administered GLP-2 peptibody K and GLP-2 peptibody K274 are in FIG. 10B. Tables showing the pharmacokinetic data comparing subcutaneously administered GLP-2 peptibody K and GL-2 peptibody K274 are in FIG. 10C.
# human GLP-2R = molecular target: T1, human GLP-2R (Homo sapiens, UniProt O95838); assay: cAMP Hunter eXpress GLP2R CHO-K1 GPCR assay; format: cell-based
# T1 construct: host or cells: CHO-K1
# T1 sequence (O95838 1-553): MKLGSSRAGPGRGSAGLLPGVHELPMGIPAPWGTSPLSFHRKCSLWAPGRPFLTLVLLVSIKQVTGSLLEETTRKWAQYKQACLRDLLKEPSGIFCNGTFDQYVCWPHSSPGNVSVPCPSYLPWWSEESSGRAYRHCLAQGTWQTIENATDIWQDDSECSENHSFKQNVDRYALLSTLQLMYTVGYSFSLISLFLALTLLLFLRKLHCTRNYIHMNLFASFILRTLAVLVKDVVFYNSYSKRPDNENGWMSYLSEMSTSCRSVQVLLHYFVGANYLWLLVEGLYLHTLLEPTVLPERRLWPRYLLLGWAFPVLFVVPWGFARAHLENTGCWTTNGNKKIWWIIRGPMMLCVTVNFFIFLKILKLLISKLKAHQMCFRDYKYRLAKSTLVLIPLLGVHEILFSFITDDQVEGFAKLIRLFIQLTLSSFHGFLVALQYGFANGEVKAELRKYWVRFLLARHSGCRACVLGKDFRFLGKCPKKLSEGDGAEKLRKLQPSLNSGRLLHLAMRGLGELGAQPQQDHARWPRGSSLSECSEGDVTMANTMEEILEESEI
# Description: The cAMP Hunter™ assay is based on enzyme fragment complementation (EFC). In EFC assay, the enzyme donor is fused to cAMP. Increased intracellular cAMP due to GLP2R activation competes with ED-cAMP for antibody. Unbound ED-cAMP complements the enzyme acceptor to form active beta galactosidase, which subsequently produces a luminescent signal.
# The CHO-K1 cell line used is overexpressing human GLP-2R (Genbank accession number NM004246.1). […] Their activities were assayed via measurement of the concentration of cAMP in the media.
substance,measurement,setting,value
GLP-2 peptibody K: GLP-2[A2G]-GGGGSGGGGSGGGGS linker-IgG1 Fc (LALA) with C-terminal lysine; SEQ ID NO: 10,CL,[1],68 mL/day/kg
same,Vc,[1],114 mL/kg
same,ka,[1],"K (0.62 ka/day,"
same,NanoDSF melting temperature 1,[2]; first transition,1 = 67.5 °C
same,NanoDSF melting temperature 2,[2]; second transition,2 = 79.7 °C
same,SEC-MALS Zenix C-150 main peak,[3],"80.2% main peak, 149,900 g/mol"
same,pharmacokinetic comparability of K and K274,[4],identical from a pharmacokinetic point of view
same,reduction of activity vs GLP-2[A2G],human GLP-2R,about five-fold
